According to the DeepSol protein solubility set:

Experiment: soluble on expression in E. coli; label from the status in PepcDB or PDB records

Row | Sequence | soluble on expression in E. coli
1 | MSLGDLLTFATGHKYYGINFDEDERGWYYREWAPEAYEVYLTGDFNDWDRRSHPLTRNEFGVWQIFLPYDLYQKRFVHKSKIKVQIVGANGTHDRIPAYITRVVQDTETTDFSGQLWFPQKPFEWTDRDFNLRKIKNPIIYEAHVGMAQEKEGVGTYREFADKIVPRIRQMGYNSIQLMAVMEHPYYGSFGYHVSNFFAPSSRFGTPEDLKYLVDRAHKFGLAVIMDVVHSHAVKNLSEGLNEFDGSDHQYFHPGDRGYHTGWDSKLFDYGKLEVKRFLLSNLRYWLEEYHFDGFRFDGVTSMLYFDHGMKTFDSYDTYFKGGVDFDAVTYLQLANEVTHRYLKDSITIAEDVSGMPGLSRSIRDGGVGFDYRLAMGIPDFWIKYLKHLQDEQWNIYEMWSTLTNRRYKEKTIAYAESHDQAMVGDKTIAFWLMDKEMYFHMQVDDPNPVIDRGIAIHKLLRLFTFALGGEGYLNFMGNEFGHPEWIDFPREGNGWSYQYARRQWSLVDNPKLKYQYLGAFDEAMMRLVRKTRLLAAEPAQQLNMDDHNKVIIFERNNMIFVFNFSVSNSVFDYKFKSFAPGTFEIVLNSDDTRFGGHGRVDDTLEYHTNTEGQLSIYTPNRSVLVFQRKEASEGHHHHHH | not soluble
2 | MLDDVLALIREHDRFFITTHLGPDGDAVGSQLALGRFLEKMGKSVAMVNADEVDYNLDWMPGAGDIAVFDGSLGQHEALAEAEVAFVLDTNDEERIGKVGSLVRDATATTVLVDHHLEPEHWFDVFFVREEAAATGELVYEIIDGLAPDLIDEGIATALYTAIMTDTGSFRYSSVTPALHRSVADILERGGIGPAPIHETIYDRKSMPGLRLLGRMLNRIRLRYNGQLGYSVVTQRMVEDTGASWDDKQGFVNYVLSIEDVKTALLFSETDDGAKISFRSEADVRVDQWARHFGGGGHRNAAGAYVKRPTFEKTIETVIDAASDYIAFDARHAPDDDLSPEDQSYLETLLDDPSDSPLEHHHHHH | not soluble
3 | MGSDKIHHHHHHMSSLINDIHAEDVANYLNRNREFFHVFPNLLNELSIPHPKSGHEVSLLERQVFQLREQRDSLQVEVDTLKDIAGENGALLHKVYDLSYALLAAESEQEAVNVVYDVMHDVFTVEEVTIISWEVPKSSVHGVNQLGISQAWSQSLKETLQPGKPVCGLLEDSWQKGLFHTDKAMQSVCVIPLGQQRVWGALALGATTDRFSPELGTYFLKVMGQMVTARLQRLF | not soluble
4 | MGSDKIHHHHHHMDNKKPKIITIASIKGGVGKSTSAIIMATLLAKEHKVLLIDMDTQASTTSYFYKEILNQNIDIVKINVYRVLKEKIDINDSIVKIKENLDLIPSYLTLNKFLSESIPLKELRLQNNLEFLKRRYHYVIIDTNPSLDYTLSNALMTSNCIIVPMTAEKWAVESLELLEFHMNNLKIKIPIFLVITRFKKNNTHKQLLQHVESKTGFLGFIHEREDLNKKIAKNEEFDMTKDYINEYKGVLSRFLIVYDEYVK | not soluble
5 | MGSDKIHHHHHHMILNIDVNLAYSIEQPVDLILQIQAPSFADQHVVSETFDLGNPEHVGRIAGEAGMGDRVLLSTATDFRFSYTAQIDVNRPALALEQLKAVAPHLLPGDAVRYLMPSRYCQSDELQSFVAAEFGHLSGGARIVAMRDWINQRYQYVPGSSTAQTTAIDTFVQRQGVCRDFAHVLIALARASAIPARFVSVYAPHVTPQDFHAVAEVFLDGTWHLVDATGMADASDIARIGVGMDAAEVAFLSSFGPMTMDTQTVSVSIAGS | not soluble
6 | MGSDKIHHHHHHMLLNVKQDFCLAGPGYLLNHSVGRPLKSTEQALKQAFFAPWQESGREPWGQWLGVIDNFTAALASLFNGQPQDFCPQVNLSSALTKIVMSLDRLTRDLTRNGGAVVLMSEIDFPSMGFALKKALPASCELRFIPKSLDVTDPNVWDAHICDDVDLVFVSHAYSNTGQQAPLAQIISLARERGCLSLVDVAQSAGILPLDLAKLQPDFMIGSSVKWLCSGPGAAYLWVNPAILPECQPQDVGWFSHENPFEFDIHDFRYHPTALRFWGGTPSIAPYAIAAHSIEYFANIGSQVMREHNLQLMEPVVQALDNELVSPQEVDKRSGTIILQFGERQPQILAALAAANISVDTRSLGIRVSPHIYNDEADIARLLGVIKANR | not soluble
